This is an account of results in patent publication US20260263645A1 (published 2026).

The target in this assay is TGFβ1 (UniProt P01137 279-390). The assay is described as follows: radioligand plate binding; 89Zr-labeled.

In general, Kd refers to a measure of binding affinity in units of concentration. Read a high Kd as weaker binding.

Sequence of TGFβ1 (P01137 279-390): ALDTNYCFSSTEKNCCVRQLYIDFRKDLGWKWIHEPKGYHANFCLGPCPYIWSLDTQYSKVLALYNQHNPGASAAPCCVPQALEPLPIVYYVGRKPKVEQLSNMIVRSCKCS

B1: Fresolimumab (antibody, V domains shown)
VH: QVQLVQSGAEVKKPGSSVKVSCKASGYTFSSNVISWVRQAPGQGLEWMGGVIPIVDIANYAQRFKGRVTITADESTSTTYMELSSLRSEDTAVYYCASTLGLVLDAMDYWGQGTLVTVSS
VL: ETVLTQSPGTLSLSPGERATLSCRASQSLGSSYLAWYQQKPGQAPRLLIYGASSRAPGIPDRFSGSGSGTDFTLTISRLEPEDFAVYYCQQYADSPITFGQGTRLEIKR
On to B1, for which the Kd was found to be 66 nM.
